Laboratory results taken from publication PMC10786891, “Massively parallel profiling of RNA-targeting CRISPR-Cas13d”.

T1: EsCas13d, nuclease-dead (Eubacterium siraeum, UniProt B0MS50, R295A;H300A;R849A;H854A)
T1 sequence: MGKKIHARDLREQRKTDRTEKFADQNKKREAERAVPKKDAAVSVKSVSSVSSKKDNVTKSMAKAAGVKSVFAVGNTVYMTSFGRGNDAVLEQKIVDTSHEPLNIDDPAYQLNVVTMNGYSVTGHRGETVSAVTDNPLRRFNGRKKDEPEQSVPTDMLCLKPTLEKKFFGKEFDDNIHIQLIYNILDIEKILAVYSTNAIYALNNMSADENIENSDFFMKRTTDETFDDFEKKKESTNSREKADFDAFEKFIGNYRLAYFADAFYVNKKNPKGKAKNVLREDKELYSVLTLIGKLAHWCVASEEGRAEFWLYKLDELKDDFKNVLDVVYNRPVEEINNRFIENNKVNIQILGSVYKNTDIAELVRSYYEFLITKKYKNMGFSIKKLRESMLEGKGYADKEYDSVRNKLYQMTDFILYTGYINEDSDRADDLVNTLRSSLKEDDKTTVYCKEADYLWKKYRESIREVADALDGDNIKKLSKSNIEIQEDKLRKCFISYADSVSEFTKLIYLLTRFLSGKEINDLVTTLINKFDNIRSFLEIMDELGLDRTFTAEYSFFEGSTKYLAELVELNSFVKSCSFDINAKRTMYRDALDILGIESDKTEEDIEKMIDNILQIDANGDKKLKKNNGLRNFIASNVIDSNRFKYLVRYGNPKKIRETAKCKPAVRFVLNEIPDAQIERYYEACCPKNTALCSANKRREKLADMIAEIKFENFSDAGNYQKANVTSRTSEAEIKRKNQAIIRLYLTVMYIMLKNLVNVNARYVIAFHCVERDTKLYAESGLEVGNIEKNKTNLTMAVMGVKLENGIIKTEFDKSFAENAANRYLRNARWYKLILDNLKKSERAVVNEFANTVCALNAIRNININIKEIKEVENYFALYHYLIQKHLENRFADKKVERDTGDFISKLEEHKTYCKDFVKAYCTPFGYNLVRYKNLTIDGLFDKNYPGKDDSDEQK


Biological target: T1, EsCas13d, nuclease-dead
Experiment: crRNA (strand 1, pre-loaded); Mg2+; 40 mM Tris-HCl pH 7.5, 150 mM NaCl, 6 mM MgCl2, 1 mM DTT, 0.1% Tween-20, 0.2 mg/ml BSA; 25 C; 10 min per concentration, then washed
Conditions: tags: His6-TwinStrep-SUMO cleaved; N-terminal SNAP kept (SNAP-Surface 488); label: 3' end held by stalled T7 RNA polymerase

Binder	Kd
target 2 MT 5'PFS CGC 3'PFS AGU (mixed) RNA 1: CACCCGUGCAAAAUUGCAGGGGUCUAAAACCUUCUCCAAAUUGUUUCAUCCU RNA 2: GGGAAUGGAUCCACAUCUACGAAUUCCGCAGGAUGAAACAAUUUGGAGAAGAGUAGAUCGGAAGAGCACACGU	4.3 ± 0.6 nM
target 2 MT 5'PFS AAC 3'PFS UCU (mixed) RNA 1: CACCCGUGCAAAAUUGCAGGGGUCUAAAACCUUCUCCAAAUUGUUUCAUCCU RNA 2: GGGAAUGGAUCCACAUCUACGAAUUCAACAGGAUGAAACAAUUUGGAGAAGUCUAGAUCGGAAGAGCACACGU	14 ± 4 nM
target 2 MT 5'PFS GCC 3'PFS CUC (mixed) RNA 1: CACCCGUGCAAAAUUGCAGGGGUCUAAAACCUUCUCCAAAUUGUUUCAUCCU RNA 2: GGGAAUGGAUCCACAUCUACGAAUUCGCCAGGAUGAAACAAUUUGGAGAAGCUCAGAUCGGAAGAGCACACGU	18.3 ± 2.3 nM
target 2 MT 5'PFS GGA 3'PFS CAG (mixed) RNA 1: CACCCGUGCAAAAUUGCAGGGGUCUAAAACCUUCUCCAAAUUGUUUCAUCCU RNA 2: GGGAAUGGAUCCACAUCUACGAAUUCGGAAGGAUGAAACAAUUUGGAGAAGCAGAGAUCGGAAGAGCACACGU	11.5 ± 1.5 nM
target 2 MT 5'PFS GGA 3'PFS UAU (mixed) RNA 1: CACCCGUGCAAAAUUGCAGGGGUCUAAAACCUUCUCCAAAUUGUUUCAUCCU RNA 2: GGGAAUGGAUCCACAUCUACGAAUUCGGAAGGAUGAAACAAUUUGGAGAAGUAUAGAUCGGAAGAGCACACGU	9.1 ± 1.1 nM
target 2 MT 5'PFS AUG 3'PFS AUC (mixed) RNA 1: CACCCGUGCAAAAUUGCAGGGGUCUAAAACCUUCUCCAAAUUGUUUCAUCCU RNA 2: GGGAAUGGAUCCACAUCUACGAAUUCAUGAGGAUGAAACAAUUUGGAGAAGAUCAGAUCGGAAGAGCACACGU	9.3 ± 1.6 nM
target 2 MT 5'PFS GGG 3'PFS CAA (mixed) RNA 1: CACCCGUGCAAAAUUGCAGGGGUCUAAAACCUUCUCCAAAUUGUUUCAUCCU RNA 2: GGGAAUGGAUCCACAUCUACGAAUUCGGGAGGAUGAAACAAUUUGGAGAAGCAAAGAUCGGAAGAGCACACGU	4.9 ± 0.5 nM
target 2 MT 5'PFS UAG 3'PFS UCU (mixed) RNA 1: CACCCGUGCAAAAUUGCAGGGGUCUAAAACCUUCUCCAAAUUGUUUCAUCCU RNA 2: GGGAAUGGAUCCACAUCUACGAAUUCUAGAGGAUGAAACAAUUUGGAGAAGUCUAGAUCGGAAGAGCACACGU	38 ± 10 nM
target 2 MT 5'PFS GAU 3'PFS CUC (mixed) RNA 1: CACCCGUGCAAAAUUGCAGGGGUCUAAAACCUUCUCCAAAUUGUUUCAUCCU RNA 2: GGGAAUGGAUCCACAUCUACGAAUUCGAUAGGAUGAAACAAUUUGGAGAAGCUCAGAUCGGAAGAGCACACGU	17.8 ± 2.4 nM
target 2 MT 5'PFS GAU 3'PFS CUU (mixed) RNA 1: CACCCGUGCAAAAUUGCAGGGGUCUAAAACCUUCUCCAAAUUGUUUCAUCCU RNA 2: GGGAAUGGAUCCACAUCUACGAAUUCGAUAGGAUGAAACAAUUUGGAGAAGCUUAGAUCGGAAGAGCACACGU	22 ± 4 nM
target 2 MT 5'PFS GGG 3'PFS CAU (mixed) RNA 1: CACCCGUGCAAAAUUGCAGGGGUCUAAAACCUUCUCCAAAUUGUUUCAUCCU RNA 2: GGGAAUGGAUCCACAUCUACGAAUUCGGGAGGAUGAAACAAUUUGGAGAAGCAUAGAUCGGAAGAGCACACGU	8 ± 0.8 nM
target 2 MT 5'PFS AUG 3'PFS AUA (mixed) RNA 1: CACCCGUGCAAAAUUGCAGGGGUCUAAAACCUUCUCCAAAUUGUUUCAUCCU RNA 2: GGGAAUGGAUCCACAUCUACGAAUUCAUGAGGAUGAAACAAUUUGGAGAAGAUAAGAUCGGAAGAGCACACGU	9 ± 1.1 nM
target 2 MT 5'PFS AAC 3'PFS UCA (mixed) RNA 1: CACCCGUGCAAAAUUGCAGGGGUCUAAAACCUUCUCCAAAUUGUUUCAUCCU RNA 2: GGGAAUGGAUCCACAUCUACGAAUUCAACAGGAUGAAACAAUUUGGAGAAGUCAAGAUCGGAAGAGCACACGU	9.3 ± 2.5 nM
target 2 MT 5'PFS GCC 3'PFS CUU (mixed) RNA 1: CACCCGUGCAAAAUUGCAGGGGUCUAAAACCUUCUCCAAAUUGUUUCAUCCU RNA 2: GGGAAUGGAUCCACAUCUACGAAUUCGCCAGGAUGAAACAAUUUGGAGAAGCUUAGAUCGGAAGAGCACACGU	10.5 ± 1.9 nM
target 2 MT 5'PFS GGA 3'PFS CAC (mixed) RNA 1: CACCCGUGCAAAAUUGCAGGGGUCUAAAACCUUCUCCAAAUUGUUUCAUCCU RNA 2: GGGAAUGGAUCCACAUCUACGAAUUCGGAAGGAUGAAACAAUUUGGAGAAGCACAGAUCGGAAGAGCACACGU	9.4 ± 1 nM
target 2 MT 5'PFS GGG 3'PFS CAG (mixed) RNA 1: CACCCGUGCAAAAUUGCAGGGGUCUAAAACCUUCUCCAAAUUGUUUCAUCCU RNA 2: GGGAAUGGAUCCACAUCUACGAAUUCGGGAGGAUGAAACAAUUUGGAGAAGCAGAGAUCGGAAGAGCACACGU	9 ± 0.8 nM
target 2 MT 5'PFS GCC 3'PFS CUA (mixed) RNA 1: CACCCGUGCAAAAUUGCAGGGGUCUAAAACCUUCUCCAAAUUGUUUCAUCCU RNA 2: GGGAAUGGAUCCACAUCUACGAAUUCGCCAGGAUGAAACAAUUUGGAGAAGCUAAGAUCGGAAGAGCACACGU	11.7 ± 2.4 nM
target 2 MT 5'PFS UAG 3'PFS UCA (mixed) RNA 1: CACCCGUGCAAAAUUGCAGGGGUCUAAAACCUUCUCCAAAUUGUUUCAUCCU RNA 2: GGGAAUGGAUCCACAUCUACGAAUUCUAGAGGAUGAAACAAUUUGGAGAAGUCAAGAUCGGAAGAGCACACGU	4.8 ± 0.7 nM
target 2 MT 5'PFS GAU 3'PFS CUG (mixed) RNA 1: CACCCGUGCAAAAUUGCAGGGGUCUAAAACCUUCUCCAAAUUGUUUCAUCCU RNA 2: GGGAAUGGAUCCACAUCUACGAAUUCGAUAGGAUGAAACAAUUUGGAGAAGCUGAGAUCGGAAGAGCACACGU	14.9 ± 2 nM
target 2 MT 5'PFS GGG 3'PFS CAC (mixed) RNA 1: CACCCGUGCAAAAUUGCAGGGGUCUAAAACCUUCUCCAAAUUGUUUCAUCCU RNA 2: GGGAAUGGAUCCACAUCUACGAAUUCGGGAGGAUGAAACAAUUUGGAGAAGCACAGAUCGGAAGAGCACACGU	9.4 ± 1 nM
target 2 MT 5'PFS GGA 3'PFS CAA (mixed) RNA 1: CACCCGUGCAAAAUUGCAGGGGUCUAAAACCUUCUCCAAAUUGUUUCAUCCU RNA 2: GGGAAUGGAUCCACAUCUACGAAUUCGGAAGGAUGAAACAAUUUGGAGAAGCAAAGAUCGGAAGAGCACACGU	6.7 ± 1.2 nM
target 2 MT 5'PFS GCC 3'PFS CUG (mixed) RNA 1: CACCCGUGCAAAAUUGCAGGGGUCUAAAACCUUCUCCAAAUUGUUUCAUCCU RNA 2: GGGAAUGGAUCCACAUCUACGAAUUCGCCAGGAUGAAACAAUUUGGAGAAGCUGAGAUCGGAAGAGCACACGU	12.7 ± 2.1 nM
target 2 MT 5'PFS UCG 3'PFS CCA (mixed) RNA 1: CACCCGUGCAAAAUUGCAGGGGUCUAAAACCUUCUCCAAAUUGUUUCAUCCU RNA 2: GGGAAUGGAUCCACAUCUACGAAUUCUCGAGGAUGAAACAAUUUGGAGAAGCCAAGAUCGGAAGAGCACACGU	31 ± 11 nM
target 2 MT 5'PFS GGA 3'PFS CAU (mixed) RNA 1: CACCCGUGCAAAAUUGCAGGGGUCUAAAACCUUCUCCAAAUUGUUUCAUCCU RNA 2: GGGAAUGGAUCCACAUCUACGAAUUCGGAAGGAUGAAACAAUUUGGAGAAGCAUAGAUCGGAAGAGCACACGU	9.1 ± 1.1 nM
target 1 insG 3' of 9,insA 3' of 6 (mixed) RNA 1: CACCCGUGCAAAAAUGCAGGGGUCUAAAACUGAGCGGAUAACCUCUCUAUGG RNA 2: GGGAAUGGAUCCACAUCUACGAAUUCGUACCAUAGAGAGGUUAGUCCAGCUCACCGAGAUCGGAAGAGCACACGU	13.4 ± 0.7 nM
target 1 C2U,A14C (mixed) RNA 1: CACCCGUGCAAAAAUGCAGGGGUCUAAAACUGAGCGGAUAACCUCUCUAUGG RNA 2: GGGAAUGGAUCCACAUCUACGAAUUCGUACCAUAGAGCGGUUAUCCGCUUACCGAGAUCGGAAGAGCACACGU	80 ± 13 nM
target 1 del3,del11 (mixed) RNA 1: CACCCGUGCAAAAAUGCAGGGGUCUAAAACUGAGCGGAUAACCUCUCUAUGG RNA 2: GGGAAUGGAUCCACAUCUACGAAUUCGUACCAUAGAGAGGUAUCCGCCACCGAGAUCGGAAGAGCACACGU	66 ± 16 nM
target 1 A14G (mixed) RNA 1: CACCCGUGCAAAAAUGCAGGGGUCUAAAACUGAGCGGAUAACCUCUCUAUGG RNA 2: GGGAAUGGAUCCACAUCUACGAAUUCGUACCAUAGAGGGGUUAUCCGCUCACCGAGAUCGGAAGAGCACACGU	13.9 ± 0.7 nM
